This passage reports Kd results from publication doi:10.1101/2024.08.06.606809.

Experiment in all cases: SPR
A general note: In SPR one partner is held on a chip, and binding of the other changes the refractive index at the surface.

Assay [1] deals with Protein G variant GD.
Assay [2] addresses Protein G variant GF.
The target in assay [3] is Protein G variant GLM.
Assay [4] addresses Protein G-Fc (Fc specific Protein-G variant).

As to “Fab^H, wild-type human (Herceptin) Fab scaffold with a kappa light chain”, the results for the Kd in assay [1], in assay [2] and in assay [3] were 6.4 nM, 1.9 nM and 8.9 nM, respectively.

For the substance “human Fc (Fc domain of IgG) (domain or fragment)”, the dissociation constant (Kd) (usually the equilibrium constant for the complex coming apart) in assay [4] came out at 3.8 nM.
